{"source": "paper PMC5343618", "binders": {"B1": {"name": "alkaline phosphatase D (PhoD) with a C-terminal 6-His tag (PhoD-H), P42251 57-583 (enzyme)", "chain": "APNFSSYPFTLGVASGDPLSDSVVLWTRLAPDPLNGGGMPKQAVPVKWEVAKDEHFRKIVRKGTEMAKPSLAHSVHVEADGLEPNKVYYYRFKTGHELSPVGKTKTLPAPGANVPQMTFAFASCQQYEHGYYTAYKHMAKEKLDLVFHLGDYIYEYGPNEYVSKTGNVRTHNSAEIITLQDYRNRHAQYRSDANLKAAHAAFPWVVTWDDHEVENNYANKIPEKGQSVEAFVLRRAAAYQAYYEHMPLRISSLPNGPDMQLYRHFTYGNLASFNVLDTRQYRDDQANNDGNKPPSDESRNPNRTLLGKEQEQWLFNNLGSSTAHWNVLAQQIFFAKWNFGTSASPIYSMDSWDGYPAQRERVINFIKSKNLNNVVVLTGDVHASWASNLHVDFEKTSSKIFGAEFVGTSITSGGNGADKRADTDQILKENPHIQFFNDYRGYVRCTVTPHQWKADYRVMPFVTEPGAAISTRASFVYQKDQTGLRKVSSTTIQGGVKQSDEVEEDRFFSHNKAHEKQMIKKRAKITN"}}, "biological_target": "T1, alkaline phosphatase D (PhoD) with a C-terminal 6-His tag (PhoD-H) (B. subtilis 168), P42251", "T1 chain": "B1 chain", "experiment": "cross-linking; in vivo cross-linking of B. subtilis cells with 0.5 mM DSS in PBS pH 8.3, 20 min at 37 °C; cells recovered 1 h in fresh medium; 10% SDS-PAGE with β-mercaptoethanol and anti-His immunoblot of cell and supernatant fractions", "conditions": "remark: other sources report otherwise", "data": [{"binder": "B1", "values": [{"measurement": "stoichiometry N", "value": 2}]}]}
